We go through two variants from IntAct's records for PubMed 16824107.

B1: Cytochrome c biogenesis ATP-binding export protein CcmA (Escherichia coli (strain K12)), P33931 (parent)
chain: MGMLEARELLCERDERTLFSGLSFTLNAGEWVQITGSNGAGKTTLLRLLTGLSRPDAGEVLWQGQPLHQVRDSYHQNLLWIGHQPGIKTRLTALENLHFYHRDGDTAQCLEALAQAGLAGFEDIPVNQLSAGQQRRVALARLWLTRATLWILDEPFTAIDVNGVDRLTQRMAQHTEQGGIVILTTHQPLNVAESKIRRISLTQTRAA
partner: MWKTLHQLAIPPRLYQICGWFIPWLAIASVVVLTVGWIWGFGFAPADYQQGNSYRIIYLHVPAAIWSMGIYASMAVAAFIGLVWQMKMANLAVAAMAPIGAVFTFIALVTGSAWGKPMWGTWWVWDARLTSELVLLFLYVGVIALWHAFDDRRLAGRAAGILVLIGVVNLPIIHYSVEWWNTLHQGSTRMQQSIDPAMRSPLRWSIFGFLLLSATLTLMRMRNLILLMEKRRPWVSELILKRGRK
B2: Cytochrome c biogenesis ATP-binding export protein CcmA (Escherichia coli (strain K12)), P33931 (parent)
chain: B1 chain
partner: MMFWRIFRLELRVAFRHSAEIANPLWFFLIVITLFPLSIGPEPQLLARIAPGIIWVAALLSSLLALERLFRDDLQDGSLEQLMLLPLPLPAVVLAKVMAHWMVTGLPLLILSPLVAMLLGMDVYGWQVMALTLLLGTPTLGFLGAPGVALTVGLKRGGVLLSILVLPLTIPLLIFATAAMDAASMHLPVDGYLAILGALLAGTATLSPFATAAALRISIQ

Variants of B1 are the subject of one assay. As to conditions: with ccmc_ecoli ccmC.
In the case of G132A, the “effect of a mutation on the interaction” value is on record as “with no effect”.

The next assay covers variants of B2. As to conditions: with ccmb_ecoli ccmB.
Take G132A: the “effect of a mutation on the interaction” value is reported as “with no effect”.
